Assay results: US20030199423A1
Each block holds one substance with its values, some of them ahead of it.

Columns and labels:
[1] = target: LFA-1 (CD18/CD11a) (human) (UniProt P20701); test: inhibition of SKW3 cell adhesion to coated soluble ICAM-R, peptide 1-2 mg/ml
[2] = target: LFA-1 (CD18/CD11a) (human) (UniProt P20701); test: inhibition of neutrophil adhesion to coated ICAM-R/Ig, antibody 15 µg/ml
[3] = target: LFA-1 (CD18/CD11a) (human) (UniProt P20701); test: inhibition of CD18-dependent adhesion of PMA-treated JY cells to coated shICAM-R, antibody 10 µg/ml; defines total CD18-dependent binding

Sequence of LFA-1 (CD18/CD11a) (human) (P20701 26-1170, chain 1 of 2): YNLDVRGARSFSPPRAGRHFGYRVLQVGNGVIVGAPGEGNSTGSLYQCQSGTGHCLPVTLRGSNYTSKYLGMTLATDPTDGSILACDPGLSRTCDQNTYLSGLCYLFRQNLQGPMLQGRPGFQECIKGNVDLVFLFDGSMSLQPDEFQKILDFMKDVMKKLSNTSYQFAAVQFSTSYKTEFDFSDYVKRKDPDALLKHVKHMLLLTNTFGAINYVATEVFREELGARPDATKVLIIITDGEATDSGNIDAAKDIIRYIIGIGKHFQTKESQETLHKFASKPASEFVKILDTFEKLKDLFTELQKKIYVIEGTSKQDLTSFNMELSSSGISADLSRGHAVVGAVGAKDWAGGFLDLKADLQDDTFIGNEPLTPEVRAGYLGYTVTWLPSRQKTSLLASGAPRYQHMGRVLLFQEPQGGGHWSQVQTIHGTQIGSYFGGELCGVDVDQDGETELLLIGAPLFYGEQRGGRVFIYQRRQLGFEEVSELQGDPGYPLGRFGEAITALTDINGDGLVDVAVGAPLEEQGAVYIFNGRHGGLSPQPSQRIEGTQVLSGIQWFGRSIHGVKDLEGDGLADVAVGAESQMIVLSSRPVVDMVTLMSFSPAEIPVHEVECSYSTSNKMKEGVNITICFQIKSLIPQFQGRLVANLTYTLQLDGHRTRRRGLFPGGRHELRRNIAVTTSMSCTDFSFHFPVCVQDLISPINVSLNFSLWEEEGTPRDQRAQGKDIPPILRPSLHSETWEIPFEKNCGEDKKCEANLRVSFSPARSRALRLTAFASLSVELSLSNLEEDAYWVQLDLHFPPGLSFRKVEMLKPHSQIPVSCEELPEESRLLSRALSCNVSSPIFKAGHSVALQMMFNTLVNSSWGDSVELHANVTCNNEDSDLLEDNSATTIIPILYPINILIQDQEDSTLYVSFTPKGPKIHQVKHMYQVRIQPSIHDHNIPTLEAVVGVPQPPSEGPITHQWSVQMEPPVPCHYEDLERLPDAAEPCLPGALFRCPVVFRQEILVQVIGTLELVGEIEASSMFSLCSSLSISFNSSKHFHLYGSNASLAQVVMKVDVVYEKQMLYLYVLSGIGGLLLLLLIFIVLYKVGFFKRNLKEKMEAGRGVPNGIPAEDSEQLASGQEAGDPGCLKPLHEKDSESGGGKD
Sequence of LFA-1 (CD18/CD11a) (human) (P05107 23-769, chain 2 of 2, further chain): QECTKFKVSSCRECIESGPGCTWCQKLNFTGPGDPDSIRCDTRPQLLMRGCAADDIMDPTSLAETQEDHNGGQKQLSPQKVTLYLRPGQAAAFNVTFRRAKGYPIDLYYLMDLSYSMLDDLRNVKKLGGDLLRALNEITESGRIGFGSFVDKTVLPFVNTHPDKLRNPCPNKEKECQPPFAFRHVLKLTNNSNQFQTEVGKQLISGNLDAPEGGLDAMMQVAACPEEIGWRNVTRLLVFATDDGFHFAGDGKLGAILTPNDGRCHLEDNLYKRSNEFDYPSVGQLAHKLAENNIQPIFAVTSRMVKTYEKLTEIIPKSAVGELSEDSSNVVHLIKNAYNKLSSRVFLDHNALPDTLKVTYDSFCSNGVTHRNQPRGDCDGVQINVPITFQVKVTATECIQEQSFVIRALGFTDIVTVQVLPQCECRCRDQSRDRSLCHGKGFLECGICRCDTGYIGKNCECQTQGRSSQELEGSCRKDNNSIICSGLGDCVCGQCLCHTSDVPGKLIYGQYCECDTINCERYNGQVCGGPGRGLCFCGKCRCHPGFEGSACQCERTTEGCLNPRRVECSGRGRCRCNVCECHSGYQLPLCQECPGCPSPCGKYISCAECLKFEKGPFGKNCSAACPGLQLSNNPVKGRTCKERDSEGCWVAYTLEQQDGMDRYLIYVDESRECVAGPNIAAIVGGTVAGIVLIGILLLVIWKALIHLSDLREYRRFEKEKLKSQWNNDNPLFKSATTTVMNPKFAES

- % Inhibition [1]: 26%
Substance: ICAM-R domain 1 peptide (NGSQI), residues 72-76

- percent inhibition of neutrophil binding to ICAM-R [2]: 50%
Substance: anti-CD11a monoclonal antibody TS1/22

- Inhibition (%) [3]: 100%
Substance: anti-CD18 monoclonal antibody 60.3
